Molecular target: HLA-DR1 on transfected murine fibroblasts (DAP.3-DR1) (human)
Assay: radioligand binding

Substance: staphylococcal enterotoxin B (from UniProt P01552 28-266) (natural protein)
- Kd: 0.141 µM

Reference: paper PMC3813916
